Data from the Human Domainome abundance scans (Beltran et al. 2025).

B1: Protein S100-G, residues 1 to 79; numbered along this chain, P02633 (parent)
chain: MSAKKSPEELKGIFEKYAAKEGDPNQLSKEELKLLLQTEFPSLLKGPSTLDELFEELDKNGDGEVSFEEFQVLVKKISQ

Variants of: B1
Assay: abundance fitness (aPCA) (normalised: wild type 0, dead -1); higher = more abundant; growth selection in yeast, the domain comes from the species named
Conditions: Bos taurus

Abundance fitness: each site, then its substitutions
K20: Y -0.112 | W -0.181
L27: V -0.02 | F -0.48 | K -0.844 | G -0.786 | C 0.006 | W -0.936 | D -0.855 | M -0.054 | T -0.335 | Q -0.839 | E -1.04 | R -0.673 | I 0.105 | H -0.751 | Y -0.764 | A -0.137 | S -0.611 | P -0.846 | N -0.681
S28: Q -0.008 | I -0.282 | K -0.048 | M -0.218 | T -0.083 | L -0.208 | C -0.07 | V -0.156 | P -0.033 | E -0.05 | N -0.049 | A 0 | H -0.041 | W -0.465 | F -0.425 | R -0.065 | Y -0.277 | D 0.037
K29: D -0.007 | N 0.07 | Q -0.099 | C 0.002 | S -0.006 | R 0.027 | A 0.025 | Y 0.12 | H 0.06 | L -0.008 | M -0.057 | I 0.056 | V 0.038 | T 0.007 | F 0.017 | E -0.14 | G -0.078
L32: W -0.209 | H -0.951 | C -0.097 | Y -0.205 | V -0.067 | K -1.03 | N -0.673 | P -2.71 | D -3.08 | R -0.874 | T -0.054 | E -1.72 | F -0.048 | A 0.027 | Q -0.616 | S -0.138 | I 0.067
E21: Q -0.031 | Y -0.058 | R -0.104 | G -0.034 | I -0.027 | S -0.085 | D 0.074 | H -0.014 | P -0.35 | F 0.085 | W -0.236 | V -0.057 | C 0.011 | A 0.003 | T -0.082 | N 0.039
L35: G -0.51 | D -1.44 | M 0.031 | F -0.164 | H -0.724 | S -0.206 | P -2.06 | W -0.313 | I 0.016 | A 0.02 | N -1.04 | C -0.064 | T -0.174 | K -0.829 | E -1.11 | Q -0.684
T38: C -0.034 | N -0.056 | I -0.004 | H -0.045 | L -0.073 | Q 0.008 | V 0.014 | Y -0.074 | M -0.045 | R -0.082 | W -0.194 | P -0.642 | D 0.096 | F -0.002 | A 0.027 | G -0.1
E39: A -0.515 | Y -0.197 | H -0.059 | Q -0.21 | T -0.218 | D -0.16 | R -0.449 | M -0.177 | N -0.138 | C -0.295 | V -0.304 | P -1.63 | S -0.308 | G -0.809 | K -0.33 | F -0.345 | L -0.207 | I -0.24 | W -0.349
E31: H -0.016 | F -0.123 | Y -0.07 | M -0.007 | W -0.171 | G 0.015 | K -0.006 | T -0.175 | D 0.054 | L -0.045 | P -0.022 | R -0.064 | I 0.032 | S 0.002 | V -0.033 | N 0.023 | A -0.108 | C -0.153
Q37: L -0.08 | Y -0.118 | I -0.104 | P -0.185 | W -0.082 | S -0.142 | C -0.076 | G 0.004 | R 0.005
